{
  "source": "paper PMC4751364",
  "about": "“Mitotic Activation of a Novel Histone Deacetylase 3-Linker Histone H1.3 Protein Complex by Protein Kinase CK2*” (The Journal of Biological Chemistry, 2015)",
  "molecular_target": "T1, Human recombinant HDAC3 (human, UniProt O15379 1-428)",
  "T1 construct": "human recombinant HDAC3 (Biomol); No catalogue number, host or tag is printed for the bought protein; also called recombinant human HDAC3; source: bought: Biomol",
  "T1 sequence (O15379 whole entry)": "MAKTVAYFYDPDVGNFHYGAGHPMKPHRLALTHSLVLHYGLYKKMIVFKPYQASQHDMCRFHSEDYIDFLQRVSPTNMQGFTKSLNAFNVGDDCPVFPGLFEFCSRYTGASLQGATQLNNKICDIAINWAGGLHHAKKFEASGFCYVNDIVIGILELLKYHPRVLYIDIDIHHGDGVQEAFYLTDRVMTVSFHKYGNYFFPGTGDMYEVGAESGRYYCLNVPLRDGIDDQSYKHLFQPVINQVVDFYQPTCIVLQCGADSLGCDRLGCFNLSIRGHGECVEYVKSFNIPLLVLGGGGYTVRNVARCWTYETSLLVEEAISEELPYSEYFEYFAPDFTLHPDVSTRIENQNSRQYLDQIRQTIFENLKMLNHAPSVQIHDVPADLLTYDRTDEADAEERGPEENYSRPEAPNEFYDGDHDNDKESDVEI",
  "assay": "pull-down; recombinant HDAC3 (8 ug) incubated with recombinant H1.3 (4 ug), overnight at 4 C; pulled down with anti-HDAC3 antibody and protein A/G-agarose; SDS-PAGE, Coomassie staining",
  "conditions": "both partners purified",
  "data": [
    {"binder": "Human recombinant H1.3 (natural protein, UniProt P16402 1-221, looked up, human recombinant histone H1.3 (Alexis Biochemicals); No catalogue number, host or tag is printed for the bought protein; also called recombinant human histone H1.3; source: bought: Alexis Biochemicals) MSETAPLAPTIPAPAEKTPVKKKAKKAGATAGKRKASGPPVSELITKAVAASKERSGVSLAALKKALAAAGYDVEKNNSRIKLGLKSLVSKGTLVQTKGTGASGSFKLNKKAASGEGKPKAKKAGAAKPRKPAGAAKKPKKVAGAATPKKSIKKTPKKVKKPATAAGTKKVAKSAKKVKTPQPKKAAKSPAKAKAPKPKAAKPKSGKPKVTKAKKAAPKKK", "values": [
      {"measurement": "binding result", "result": "binds"}
    ]}
  ]
}
